experiment: soluble on expression in E. coli; label from the status in PepcDB or PDB records

Row | Sequence | soluble on expression in E. coli
1 | MEREQRHKVIMRTIDRPGITRIDALTELTGVSAVTIHRDLVELEQAGFLARTHGGAKRVPKRGTPQPFAVRQAEDREAKRILAQATAQLIADDEAVIFDNGTTCQAVAQELAGRPITALCLSLHSAVALGSRAGTNVFIPGGPVENDSLALSGPAVITALRDFSADVVILGSCSTSLEHGLATTTYDDAENKRAAIHAATRRILVVSARKLNHVSTFRFADVADLHQLVTTSDAPREILAEIRDLGVQVITVPAPDEQRSLEHHHHHH | soluble
2 | MEDIWPTIERTTISASVPEAPANFDEKPPFNRTINVYPLTNYTFGTKDAQAEKDKSVPERFKRMKDEYEVMGMRRSVEAVLIVHEHSLPHILLLQIGTTFYKLPGGELELGEDEISGVTRLLNETLGRTDGETNEWTIEDEIGNWWRPNFDPPRYPYIPAHVTKPKEHTKLLLVQLPSKSTFCVPKNFKLVAAPLFELYDNAAAYGPLISSLPTTLSRFNFIFNDSN | not soluble
3 | MSLTEATVERIRLFLIESPIKMARLQGVGNVKGTVKRVLIELTSSDGVIGWGEAAPWEVFTGTPEAAFSALDIYLRPIALGKPVRRIRALMAELDRALVGHAEAKVAIEMALLDIVGKSSGLSVADLLGGRVRDTIPLSFSIADPDFPADLERMRKMVPDGNVIYKVKTGVKPHREDLDHLEAIRKEFGDKVDLRVDYNQALAPFGAIKILRDVEEFAPTFIEQPVPRKYLDVMAQLTAALETPVLADESCFDRRDMMEVVRREAADAVSIKLMKAGGLFEAQAIMAIADIAGLPGYGGTLWEGGIGLAAGTQLIAATPGISLGCEFYMPHHVLTEDVLEERVANRAGHVVVPDGPGLGIRVSEASVRANAQVLAEGHHHHHH | not soluble
4 | MPYIILEDQTRLYYETHGSGTPILFIHGVLMSGQFFHKQFSVLSANYQCIRLDLRGHGESDKVLHGHTISQYARDIREFLNAMELDHVVLAGWSMGAFVVWDYLNQFGNDNIQAAVIIDQSASDYQWEGWEHGPFDFDGLKTAMHAIQTDPLPFYESFIQNMFAEPPAETETEWMLAEILKQPAAISSTILFNQTAADYRGTLQNINVPALLCFGEDKKFFSTAAGEHLRSNIPNATLVTFPKSSHCPFLEEPDAFNSTLLSFLDGVIGKS | not soluble
5 | MGSDKIHHHHHHMNQSRLICFVALLFVLSGCQGKPVTIPEEDGPMVVVSHIKESTFSFISKNKMELLETEESPYPLTAMVDIEGGQIVVTSQTEDTLFLFDTVQGKILPFITLNKGLTVMEFDRAKRMLFVADTLNDEIIQIDVDKREVQTRIAIDCSPTDLQVIDDLLFILSSETSTVFIYDMRSETMIQSFSVTERPAGMFYDGSHLWIGGHGPYGDLNKRIFAYNIKTGVIDQEVEVGLMPITIYQDQHDTYVYVLCHGDDALYKVDLDAKRVEASLSVGHNPYYLKGDGDHLYVSNLDDDTFSIIERTTFQVVNEINVPAGPYAIVLEEEE | not soluble
6 | KNVLILGAGGQIARHVINQLADKQTIKQTLFARQPAKIHKPYPTNSKIIMGDVLNHAALKQAMQGQDVVYANLTGEDLDIQANSVIAAMKACDVKRLIFVLSLGIYNEVPGKFGEWNNAVIGEPLKPFRRAADAIEASGLEYTILRPAWLTDEDIIDYELTSRNEPFKGTIVSRKSVAALITDIINKPEKHIGENIGINQPGTDG | not soluble
7 | MKELTNEELRGIQLEQLKYIDRICRENGIEYTLAGGSLIGAIRHGGYIPWDDDIDIELTRPHYDHLISVLMDQLPNEKYALLHYKVRETYLPFAKLYDTRTSFTSKIDNLNRGTGVFLDIFPMDILPDNEEERQVFKKEFLKKAIQLTASNPHGLDFASSSKKIYFWGKLVLWMPQHIRFYGKYRILAEKLDEFMQKYRNSDNQLISYLYTGYKKAIFPKEIWEEYEDVKFEGLTARKLKNHEEYLTRQYGDYMKLEHHHHHH | not soluble
8 | MWQAIAKQISEVTQQPFSISERESVNGGEINDCYMISNGSQRYFVKINEKAELPIFETEIESLTQLDKSDHIFVPSPIHIGTTKEHSFLVLNYLPTKSMDKDAFYELGVSLANHHLWGDQLEYGFDCDNYLGNVLQVNTWHRRWDCFFAEQRIGWQLQLLKEKGMVLGDIDTLVKNSKLILHNHQPKPALLHGDLWHGNIALSVKGPISYDPASYWGDAECDLAMVELFGGIQDSFFEGYESISSISEGFETRQHLYSLYHVLNHCNMFGGEYMFHAQQLIDKLNLNELEHHHHHH | not soluble
9 | MGSDKIHHHHHHMQVIKQKLTATCAQLTGYLHQPDTNAHQTNLPAIIIVPGGSYTHIPVAQAESLAMAFAGHGYQAFYLEYTLLTDQQPLGLAPVLDLGRAVNLLRQHAAEWHIDPQQITPAGFSVGGHIVALYNDYWATRVATELNVTPAMLKPNNVVLGYPVISPLLGFPKDDATLATWTPTPNELAADQHVNSDNQPTFIWTTADDPIVPATNTLAYATALATAKIPYELHVFKHGPHGLALANAQTAWKPDANQPHVAHWLTLALEWLADNR | not soluble
10 | MAHHHHHHMPSSSKKQNVVTFSEVHDPLYGMLSPLSPSPLVVRHVQYPSLHHYFLCERFKGSPAEQWMAEATTVWSLERLVKTAEEEGYQRHNWNKVKVDVMLLGTYFKFKQNEAARAVLLSTQPSLLLYHTPTDDFWGDGGDGKGKNVLGVVSMAVRARLHSEEERQKQRPPASGRHSKSAAAKSPALPATRT | soluble
11 | YETQSREKQTRQQHEHMLMIVSNLYEETVHLKKTLKTTEKVTNDSYQLYREMKGKDVQLSGRILRLAGEIHEVKKDNQRIFAGLSKLISNESLRDYMRASDLLQLVIRMNEKYAEALGKQIDFYCSIEGEHDEYHVFIVLSIINNLTANAVEAMDEEGMVSLRLRKPNESMVEFQVEDNGPGISEKIGDIVFDPGFTSKYDEFGTPSTGIGLSYVKEIVTELEGDITFDNQQRGVVFAIRLPVRHLIQKG | not soluble
12 | MGSDKIHHHHHHMSGKGAEYWTKRISEQEMPALSSTVKTLEKLAKDDVSSLAILGRSVMHDNALTSRILKVANSAIYNKGISHVTTVSRAAVVLGFDTIRNICITAKLLSSLLENKGLSEPVYHRLLTLMARAFQAAMLAKMMLKDHDEELQEEVFIAALLYHLGESAFWSMGGETTEQLDARLNQVDEKDANNVVREVLGTSFTQLSMGIAKNWGLGEVLVKSLSNPNERTPEIRSIYLANKISELMASDSKDIAELNHRIKQAADMLDLEVDEFKGRMIQCSHATRKLADTYGAKVLVAFLPDTHQLTLAAEPEAEPIKVREFNVDLQLKKLRELTDCAINKANFNEVITITLSGLLDGIGMDRCAVMLLSPNRKRLQPRVVLGENGDKMKNEFIVELNHDKNVFAESVDLKKPLFIDNPSSEKWRLYTDEELRRHTSVMGFMLAPILVDNKVIGLLYADRHSSERKLAEVDFERFTHFAQLTNLCLSVSVH | not soluble
13 | MSCRKSAPDQCSIWQSEIGVFKMFITMNRLLRLQIMIPELFLYNETHQGLNNQNVHAVGAYFDQHDPEGLQQVVPLLNEAAANQDVVVIDSMASLVDLYTMDSRGLHEICDLATPFFQLLAHPRISMEVKLLINRLKGVLLTRDAAILQLIIQVYENIAEGDQEAEEADERVKALLAERFGNDI | not soluble
14 | MRTLPSVLAAHLASGATTLCFAWRVTRRDGLVTGFTDHDRDLVVDGVTCKAASGISGSQSTLASGLSVTGAEVSGALSHDALSEDDLAAGLYDGAAIDHLLVNWQDPAQVLLLRRGTIGEVRAQDGVFTAEIRSLSDGLNQTRGRLLSSSCDADLGDARCGVDLTLPAHAASATVVAVEGALSLRVTGLSAFAQGAFARGRARLSSGANAGFVTEVKAHLVDAEGVLLRLWQRPPFAVAEGDGITLTAGCDKQLATCRDRFSNALNFRGFPHMPGNDFVIAVAIAGEGGYDGSLLE | soluble
15 | MQGVLAGLPSGIPGIGLEIEGAVQHAPQPGRHSIRCSLKVNHRIDERAQYHLFCTSKSANTTCPKGPSRVLCRDIFDIFDYRNFSMPRANEIKKGMVLNYNGKLLLAKDIDIQSPTARGAATLYKMRFSDVRTGLKVEERFKGDDIVDTVTLTRRYVDFSYVDGNEYVFMDKEDYTPYTFTKDQIEEELLFMPEGGMPDMQVLTWDGQLLALELPQTVDLEIVETAPGIKGASASARNKPATLSTGLVIQVPEYLSPGEKIRIHIEERRYMGRAD | not soluble
16 | MQDLSAVKAFHALCQHKSLTAAAKALEQPKSTLSRRLAQLEEDLGQSLLMRQGNRLTLTKAGEVFAVYSEQLLELANKSQEALQELNNQVTGELTLVVHPNLIRGWLSQVLDEFMQQHSTLKIRLLSQFQHSDEVFEPDLIIWIEHAAPMGYRKERLGYWRYAAYASPKYLAHRDKPTHPRELIHHPWIDFIACRRAELELHHPEFGSYSLPALESRLQSDNLAMQADAIAKGRGIGLLPTWFANGFETAHPGSLIPCVNGWQSQPTEINCFYPLGRHPLRLRLFIDALRQARPDEWQ | not soluble
17 | MGSDKIHHHHHHMNFTHKNLQRSYMAERTMVILDGGMGRELQRSGAPFRQPEWSALALSEAPEAVVGVHAAFIDAGAQVITSNSYAVVPFHIGEERFAAEGRQLAHIAGQLARHAADSGAHPVRVAGSLPPLFGSYRPDLFQPERVAEVLTPLLQGLAPHVDLWLAETQSSVAEVRAIHSHLPADGRPFWVSFTLQDEEVDEVPRLRSGEPVAEAIEAAVGLGVAAVLFNCSQPEVIGAAIDVARSVIERHNAEIAIGAYANAFPPQPKEATANDGLDELREDLDPPGYLAWAKDWRARGASMVGGCCGIGPEHIAELKRNLA | not soluble
18 | MAHHHHHHMPSFFPSMPPCDRAAMLTVCEARRQYLAAHVTQLYANTNPAELWSSIVKYRERNSTELLDTVNSYDELRLSYSGYRKVVYSLVFRVSPEEEKQASVEERESRKKLYFNHPFLSPATFLAFPRAEDGTIPAVPMYAFAAKRLLLYRMRVELELVARVLPPSLQDPATRVTHRLLCPPSSSSPLSNGLTQEDIEAFLYDLLPNLRLVRDMPPWMQPYYLCHASRKFMFMCDTRRTGAISIESMMKSDVFSELLRVFESDANDAIVVFTKGCTVDVAASLVTADAAEDDTIPALVLFHEGEGNNQDDMYIVKTLTDGVVLEVRRGQLYWNSGSTEFLQPDVLCMDNWFSLALMARIYEHFTSLDIDGDGVLTVDELSRYSDGSFTRLVIERAFECHVPHSGKRHIMDYKTYLDFVIATEHAATLPAMKYIWSILDLEENRKFVTVETLRCFCKAIANELIANGLMTDISAQSILSEVIDMINPKWHEWVELDDIVRSGHQATVLPILLSYRNFYAYDCREQTAAAANDEYA | not soluble
19 | MSALSTLKVTFIVSPPSFPCFHTPGPRRKAAPFRFTGQSAYPLWYHGGMAEAFCPVYAALNLLQEKWTLHIIRALLEGPKGFNELSRAVGGVNPATLSQRLDQLVRLGVVEKRVESYMPPRTRYSLTPAGEELEEVVQAIERWARRHLKAPDPAR | soluble
20 | MSLRKPPLHMLPLGGCGEIGMNFTLYGHQDHWIVVDCGMMIRQDLPQAPLQVPNVDMLASQNIVPRAIVVTHGHEDHIGAIAWLWPRWQCPVHATPLAAGLLRLRFAEQQLPTSAIQVITPGDAMESGPFDIRFLPLPHSIPESCALLLTTPQHRILHTGDWKLDPEPLIGKPASPQRFQALAPVDLVVGDSTNAPVPGHSRSEGEVARALETTIGACPGRVIVSCFASNLARILALGRAAHACGRRVSLMGRSMERMVGVARGLGYLEDFPPLVPVRDLGYLPPEEVLVIATGSQGEPRAALSRLAQGRHADFELHPGDSVIFSAKAIPGNELLIERLQAGLKRAKVTIFDERSHPELHASGHPAQAELRRFYEWVKPRRLLPVHGEQQHQQAHRALAESLGIEVPWIPRNGDMLRLDAEGLHCESRHSLAPHIVTQNRIHPLEGLRAPEASSMHRRSGILSLTLPVVRQSTGWVRIGRLLWDTSHDLPLDDVALADWVDEQLAGHDADTIVTLRQRLHGPLMHWLGDHLRHLPDVHLHIMAAEGDTVYDAEGHHHHHH | soluble

From the DeepSol protein solubility set
